T1: FGFR1 Ig modules 2, 3 (Mus musculus, UniProt P16092)
T1 construct: amino acids 249-365 and 141-365 of FGFR (swissprot p16092), respectively; made in house; host or cells: Drosophila S2 cells
T1 sequence (P16092 141-365): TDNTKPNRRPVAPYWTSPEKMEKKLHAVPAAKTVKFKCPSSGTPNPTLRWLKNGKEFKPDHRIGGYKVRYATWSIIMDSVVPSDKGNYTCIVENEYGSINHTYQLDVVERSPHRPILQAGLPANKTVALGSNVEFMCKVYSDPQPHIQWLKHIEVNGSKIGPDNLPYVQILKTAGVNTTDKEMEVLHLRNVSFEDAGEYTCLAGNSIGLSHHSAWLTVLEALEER

T2: FGFR Ig module 2 (Mus musculus, UniProt P16092)
T2 sequence (P16092 140-251): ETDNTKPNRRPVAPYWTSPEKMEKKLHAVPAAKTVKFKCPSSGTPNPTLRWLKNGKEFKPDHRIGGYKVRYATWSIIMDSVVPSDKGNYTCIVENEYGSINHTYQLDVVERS

B1: NCAM F3 module 2: recombinant protein: AG and amino acids 612-705 of rat NCAM (swissprot p13596) (protein)
chain: AGPSAPKLEGQMGEDGNSIKVNLIKQDDGGSPIRHYLVKYRALASEWKPEIRLPSGSDHVMLKSLDWNAEYEVYVVAENQQGKSKAAHFVFRTSAQ

Columns and labels:
hippocampal neurons = assay: Neurite outgrowth from hippocampal neurons; format: cell-based, rat; settings: for neurite outgrowth in dose-response study: neurite length versus concentration
Method: Dissociated neurons from embryonic rat hippocampus (embryonic day 19), prepared as described (Skladchikova et al., 1999), were grown on Permanox plastic (Nunc) for 24 h at a density of 6000 cells/cm^2, at 37° C., 5% CO2 in Neurobasal medium containing 20 mM Hepes, 100 U/ml penicillin, 100 μg/ml streptomycin, 0.4% BSA supplemented with B27 (Gibco BRL) and the below specified compounds. After 24 h, cells were fixed with paraformaldehyde, stained with Coomassie Brilliant Blue R250 and the length of neurites was measured as described (Skladchikova et al, 1999).

[1] = target: interaction between the NCAM F3 modules 1, 2 and the FGFR modules 2, 3 (Rattus norvegicus, UniProt P13596); assay: biochemical
Sequence of interaction between the NCAM F3 modules 1, 2 and the FGFR modules 2, 3 (P13596 507-705): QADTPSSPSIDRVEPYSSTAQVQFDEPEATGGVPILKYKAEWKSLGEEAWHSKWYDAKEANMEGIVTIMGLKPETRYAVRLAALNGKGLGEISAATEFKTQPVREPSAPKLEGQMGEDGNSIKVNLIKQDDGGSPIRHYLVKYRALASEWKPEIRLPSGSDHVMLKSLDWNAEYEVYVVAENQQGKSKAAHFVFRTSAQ

FGFR1 Ig modules 2, 3 = target: T1, FGFR1 Ig modules 2, 3; assay: SPR binding to immobilized FGFR Ig modules 2, 3
Source text: The NCAM F3 modules 1, 2 (without expression of exons a, AAG), and FGFR1 Ig modules 2, 3 were produced using rat NCAM cDNA and mouse FGFR1 (IIIC iso-form) cDNA. The F3 module 1 and the combined F3 modules 1, 2 consist of […] (SEQ ID NO:173) and amino acids 507-611 and 507-705 of NCAM (swissprot p13596), respectively. […] The FGFR Ig module 2 consists of […] […] The FGFR Ig module 3 and the combined Ig modules 2, 3 consist of […] (SEQ ID NO:174) and amino acids 249-365 and 141-365 of FGFR (swissprot p16092), respectively. […] All the proteins were purified by affinity chromatography using Ni2^+−NTA resin (Qiagen, USA) and/or ion exchange chromatography and gel filtration. ^15N-labelled F3 module 2 was produced as described (Thomsen et al., 1996). The NCAM Ig modules 1, 2 and 3 (RV and amino acids 20-308 of rat NCAM, swissprot p13596) was produced as described (Soroka et al., 2002).
The flow-rate was 5 μl/min. […] The FGFR Ig modules 2, 3 were immobilized on a sensor chip CM5 using amine coupling kit (Biosensor AB) as follows: 1) the two halves of the chip (designated Fc1 and Fc2) were activated by 20 μl activation solution; 2) the protein was immobilized on Fc1 using 12 μl 20 μg/ml protein in 10 mM sodium phosphate buffer pH 6.0; 3) Fc1 and Fc2 were blocked by 35 μl blocking solution. […] The resulting curve was used for analysis.

[2] = tested on: polyclonal antibody raised against the intact FGL-peptide; assay: Competitive ELISA of immunoreactivity with antibody raised against FGL-peptide; format: binding; settings: rabbit serum
Source text: Antibody specifically recognising an epitope comprising SEQ ID NO: 1 (FGL-peptide) were raised in rabbits according the standard procedure (Gill B M, Barbosa J A, Dinh T Q, Garrod S, O'Connor D T: Chromogranin B: isolation from pheochromocytoma, N-terminal sequence, tissue distribution and secretory vesicle processing. Regul Peptides 33:223-35, 1991). Synthetic FGL-peptide was coupled to a carrier protein, KLH (Keyhole Limpets Hemocyanin). The peptide was mixed with Freunds incomplete adjuvant and the mixture was injected into rabbits. 208 μg peptide was used per immunisation (per rabbit).
Antibodies (serum) were tested for specificity by competitive ELISA using a series FGL-peptide truncated variants according to the protocol described in R. J. Jenny, T. L. Messier, L. A. Ouellette, and W. R. Church, Methods Enzymol. 222, 400 (1993). 100% immunoreactivity was ob-served only with the intact FGL-peptide consisting of SEQ ID NO: 1.

rat FGFR1 (IIIC isoform) = target: T3, rat FGFR1 (IIIC isoform) (Rattus norvegicus, UniProt Q04589); assay: FGFR1 phosphorylation, Assay 2 (HEK293 cells, His-tagged FGFR1); format: cell-based; settings: 20 min, 5 μM F3 module 2, 25 μM monomeric FG loop peptide
T3 construct: expressed in transfected cells; host or cells: HEK293 cells, transient, pcDNA3.1(+)
T3 sequence (Q04589 22-822): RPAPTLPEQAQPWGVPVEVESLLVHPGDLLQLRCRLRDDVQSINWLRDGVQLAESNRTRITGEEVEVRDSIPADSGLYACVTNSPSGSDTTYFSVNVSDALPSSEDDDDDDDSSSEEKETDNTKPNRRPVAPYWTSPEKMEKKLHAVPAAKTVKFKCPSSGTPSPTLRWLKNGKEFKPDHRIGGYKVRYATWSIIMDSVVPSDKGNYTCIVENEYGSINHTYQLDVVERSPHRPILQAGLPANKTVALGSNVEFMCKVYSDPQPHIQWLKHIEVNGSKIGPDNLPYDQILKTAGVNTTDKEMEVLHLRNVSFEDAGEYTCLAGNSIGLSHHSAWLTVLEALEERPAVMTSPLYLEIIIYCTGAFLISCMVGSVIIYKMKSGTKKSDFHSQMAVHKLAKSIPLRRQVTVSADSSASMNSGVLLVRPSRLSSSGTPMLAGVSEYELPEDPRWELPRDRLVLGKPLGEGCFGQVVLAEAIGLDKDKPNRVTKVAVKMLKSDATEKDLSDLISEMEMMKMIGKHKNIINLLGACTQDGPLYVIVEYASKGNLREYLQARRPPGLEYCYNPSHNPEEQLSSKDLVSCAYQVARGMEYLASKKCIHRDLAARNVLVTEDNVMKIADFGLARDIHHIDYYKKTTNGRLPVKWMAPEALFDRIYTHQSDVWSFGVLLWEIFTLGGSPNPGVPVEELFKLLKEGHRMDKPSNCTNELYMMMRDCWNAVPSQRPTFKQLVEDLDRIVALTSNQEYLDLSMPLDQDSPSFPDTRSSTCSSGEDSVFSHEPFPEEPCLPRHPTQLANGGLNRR
Method: Assay 2: The cDNA for the rat FGFR1 (IIIC isoform) was cloned by RT-PCR using RNA isolated from the rat PC12 cell line and inserted into a pcDNA3.1(+) plasmid (invitrogen), which allows expression of FGFR1 fused to the N-terminal of hexahistidine. ˜8×10^5 HEK293 cells were cultured for 24 h in 60 mm plates in full medium (DMEM 1965 supplemented with 10% FCS, 100 U/ml penicillin, 100 μg/ml streptomycin and […] Glutamax) and then transfected with 0.2 μg plasmid (with FGFR) using the LipofectAMIN PLUS™ reagent kit according to the manufacturer's instructions (Gibco BRL). Cells were grown for another 24 hrs in full medium, and then shifted to starvation media (DMEM 1965) overnight. FGFR transfected cells were stimulated for 20 min with the specified compounds, lysed in 8M urea, 1 mM orthovanadate (in PBS) and purified from the lysate via the His-tag as follows: The lysate was loaded on Ni^2+/NTA-sepharose (Qiagen), washed with lysis buffer plus 10 mM imidazole, and the FGFR was eluted with lysis buffer plus 250 mM imidazole. The purified FGFR was analysed by immunoblotting using anti-pentahis (Qiagen) or anti-phosphotyrosine (PY20, Transduction Laboratories) antibodies. The bands were visualised by chemilumiscense and the band density was measured using a GeneGnome apparatus (SynGene).

FGFR Ig module 2 = target: T2, FGFR Ig module 2; assay: 15N-HSQC NMR chemical shift changes of NCAM F3 module 2 with FGFR Ig module 2; format: binding; settings: 50 μM 15N-labeled F3 module 2, 1 mM FGFR Ig module 2
Source text: The NCAM F3 modules 1, 2 (without expression of exons a, AAG), and FGFR1 Ig modules 2, 3 were produced using rat NCAM cDNA and mouse FGFR1 (IIIC iso-form) cDNA. The F3 module 1 and the combined F3 modules 1, 2 consist of […] (SEQ ID NO:173) and amino acids 507-611 and 507-705 of NCAM (swissprot p13596), respectively. […] The FGFR Ig module 2 consists of […] […] The FGFR Ig module 3 and the combined Ig modules 2, 3 consist of […] (SEQ ID NO:174) and amino acids 249-365 and 141-365 of FGFR (swissprot p16092), respectively. […]
The following samples were used for the structure determination of the NCAM F3 module 2: 2 mM module in H2O or D2O and 1 mM ^15N-labelled module in H2O. […] The following NMR spectra were recorded and used for assignment: TOCSY in H2O or D2O (45 and 70 ms mixing time), NOESY in H2O or D2O (80 and 200 ms mixing time), DQFCOSY, ^15N-HSQC, ^15N-TOCSY-HSQC (70 ms mixing time), and ^15N-NOESY-HSQC (125 ms mixing time) (Bodenhausen and Ruben, 1980; Braunsweiler and Ernst, 1983; Kumar et al., 1981; Piantini et al., 1982; Zhang et al., 1994). […] All spectra were recorded at 298 K. The assignment of the ^1H and ^15N resonances were performed using the program PRONTO (Kjaer et al., 1994). […]

human FGFR1 = target: T4, human FGFR1 (Homo sapiens, UniProt P11362); assay: FGFR1 phosphorylation, Assay 1 (TREX-293 cells, StrepII-tagged FGFR1); format: cell-based; settings: 20 min, 5 μM F3 module, 2.5 μM dendrimeric FG loop peptide
T4 construct: expressed in transfected cells; host or cells: TREX-293 cells (Invitrogen), Flp-In system
T4 sequence (P11362 22-822): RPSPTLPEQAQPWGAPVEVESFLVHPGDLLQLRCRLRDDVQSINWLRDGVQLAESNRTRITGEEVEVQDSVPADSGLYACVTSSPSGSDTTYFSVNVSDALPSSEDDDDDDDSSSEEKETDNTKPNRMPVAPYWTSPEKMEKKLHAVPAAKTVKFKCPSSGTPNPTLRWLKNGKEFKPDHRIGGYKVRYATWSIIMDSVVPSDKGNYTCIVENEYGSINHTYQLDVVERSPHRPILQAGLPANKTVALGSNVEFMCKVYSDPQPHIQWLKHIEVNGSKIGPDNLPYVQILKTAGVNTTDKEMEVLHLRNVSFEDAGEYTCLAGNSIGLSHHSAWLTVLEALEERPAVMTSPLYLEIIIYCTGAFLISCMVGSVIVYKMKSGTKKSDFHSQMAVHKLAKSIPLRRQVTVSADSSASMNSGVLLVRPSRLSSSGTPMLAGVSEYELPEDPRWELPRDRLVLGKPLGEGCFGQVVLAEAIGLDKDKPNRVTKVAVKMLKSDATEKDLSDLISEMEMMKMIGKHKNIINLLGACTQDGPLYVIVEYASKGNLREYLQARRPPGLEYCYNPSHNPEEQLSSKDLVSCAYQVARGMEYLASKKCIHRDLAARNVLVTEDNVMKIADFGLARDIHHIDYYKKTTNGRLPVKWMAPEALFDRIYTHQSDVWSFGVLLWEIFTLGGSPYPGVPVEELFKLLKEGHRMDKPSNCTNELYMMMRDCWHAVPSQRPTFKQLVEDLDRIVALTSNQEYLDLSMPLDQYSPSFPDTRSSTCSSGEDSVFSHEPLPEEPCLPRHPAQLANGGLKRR
Method: Assay 1: TREX-293 cells (Invitrogen) were stably transfected with human FGFR1 having a C-terminal StrepII-tag (IBA biotech), using the Flp-In system (Invitrogen). For the study of phosphorylation: ˜2×10^7 cells were starved overnight before stimulation for 20 min with the specified compounds. Cells were lysed in PBS with 1% NP-40 and phosphatase inhibitors cocktail set II (Calbiochem). The cleared cell lysates were incubated with 50 μl agarose-coupled anti-phosphotyrosine antibodies (4G10-AC, Upstate Biotechnologies) for 3 hrs at 4° C. Care was taken to calibrate the amount of cells employed, so that considerable increases in phosphorylated FGFR could be detected. The bound protein was washed, eluted using 150 mM phenyl phosphate (Sigma), precipitated by 12% trichloroacetic acid, washed in cold acetone and dissolved in SDS-PAGE sample buffer. Immunoblotting was performed using antibodies against the recombinant StrepII-tag (IBA biotech). For immunoprecipitation: ˜1×10^7 cells were transiently transfected with the 180 kDa NCAM isoform or a control vector. Cells were incubated for 24 h and then starved overnight. After lysis, FGFR was purified on a StrepTactin Minicolumn (IBA Biotech) according to the manufacturer's instructions, and analyzed by immunoblotting with polyclonal antibodies against human NCAM.

Molecule | inhibition of the neuritogenic effect induced by the F3 module 2 (hippocampal neurons; 5 μM F3 module, ATP or AMP-PCP 0.4, 1.0 mM) | inhibition of the neuritogenic effect induced by the FG loop peptide (hippocampal neurons; 50 μM peptide, ATP or AMP-PCP 0.4, 1.0 mM) | Ki [1] [µM] | binding to the immobilized FGFR modules (FGFR1 Ig modules 2, 3) | immunoreactivity [2] [%] | neurite outgrowth in dose-response study (hippocampal neurons; hippocampal neurons) | increase of FGFR phosphorylation compared to control cells (rat FGFR1 (IIIC isoform)) | changes of the chemical shifts in the presence of the Ig module 2 (FGFR Ig module 2) | stimulation of neurite outgrowth / length of neurites (hippocampal neurons; hippocampal neurons, 24 h, 5 μM F3 module 2) | FGFR phosphorylation compared to the non-stimulated cells (human FGFR1)
Nc1ncnc2c1ncn2[C@@H]1O[C@H](COP(=O)(O)OP(=O)(O)OP(=O)(O)O)[C@@H](O)[C@H]1O [ATP, adenosine triphosphate, reference compound] | substantially reduced | completely inhibited | 370 ± 50 |  |  |  |  |  |  | 
FG loop peptide: peptide corresponding to residues E^72-A^86 of the NCAM F3 module 2 (EVYVVAENQQGKSKA; NCAM Fn III, 2 [Swiss-Prot P13591] FGFR binding motif) |  |  |  | cannot be detected | 100 | induced neurite outgrowth with a bell-shaped curve | ~100% |  |  | 
B1 |  |  |  |  |  | induced neurite outgrowth with a bell-shaped curve | approx. 150% | No significant changes | substantially increased | substantially increase

From patent publication US7951906B2, “Compounds capable of interacting with a cell-surface fibroblast growth factor receptor” (Enkam Pharmaceuticals A/S, priority 2002, dated 2011)
